{
  "source": "patent US9567641B2",
  "about": "“Combination therapy for the treatment of cancer using an anti-C-met antibody” (SAMSUNG ELECTRONICS CO., LTD., priority 2013, dated 2017)",
  "molecules": {"B1": {"name": "L3-1Y/IgG2: anti-c-Met antibody: huAbF46-H4-A1 heavy chain variable region, human IgG2 hinge and constant region, kappa light chain with H36Y (antibody)", "heavy": "EVQLVESGGGLVQPGGSLRLSCAASGFTFTDYYMSWVRQAPGKGLEWLGFIRNKANGYTTEYSASVKGRFTISRDNSKNTLYLQMNSLRAEDTAVYYCARDNWFAYWGQGTLVTVSSASTKGPSVFPLAPCSRSTSESTAALGCLVKDYFPEPVTVSWNSGALTSGVHTFPAVLQSSGLYSLSSVVTVPSSNFGTQTYTCNVDHKPSNTKVDKTVERKCCVECPPCPAPPVAGPSVFLFPPKPKDTLMISRTPEVTCVVVDVSHEDPEVQFNWYVDGVEVHNAKTKPREEQFNSTFRVVSVLTVVHQDWLNGKEYKCKVSNKGLPAPIEKTISKTKGQPREPQVYTLPPSREEMTKNQVSLTCLVKGFYPSDIAVEWESNGQPENNYKTTPPMLDSDGSFFLYSKLTVDKSRWQQGNVFSCSVMHEALHNHYTQKSLSLSPGK", "light": "DIQMTQSPSSLSASVGDRVTITCKSSQSLLASGNQNNYLAWYQQKPGKAPKMLIIWASTRVSGVPSRFSGSGSGTDFTLTISSLQPEDFATYYCQQSYSRPYTFGQGTKVEIKRTVAAPSVFIFPPSDEQLKSGTASVVCLLNNFYPREAKVQWKVDNALQSGNSQESVTEQDSKDSTYSLSSTLTLSKADYEKHKVYACEVTHQGLSSPVTKSFNRGEC"}},
  "type_in_all_cases": "cell-based",
  "key": {"[1]": {"test_system": "MKN45 gastric cancer cell line", "experiment": "Synthetic lethal screening: siRNA plus anti-c-Met antibody, sensitization index (SI) by CellTiter Blue", "settings": "MKN45 cells, 5 days", "procedure": "To search genes capable of increasing efficacy when suppressed together with an anti-c-Met antibody, synthetic lethal screening was conducted using MKN45 gastric cancer cell line (JCRB, JCRB0254). The synthetic lethal screening was conducted using a total of 1310 genes related to c-Met including 638 genes of EGFR library (Science Signaling, 3, ra67).\nFirst, 0.3 ul of RNAiMax (Life Technologies) and a mixture of two different kinds of 20 nM siRNAs (Qiagen) were added to a 96-well plate, which was incubated at a room temperature for 15 min, wherein RNAiMax and siRNAs were diluted in Opti-MEM (Life Technologies) and a total mixture volume was adjusted to reach 22 ul or so. 78 ul of MKN45 cells diluted in a 5% FBS-containing RPMI1640 medium (GIBCO) were seeded onto each well of the 96-well plate so that each well contained 5000 cells. […]\nAfter 5 days, 20 ul of a diluting solution of CellTiter Blue (Promega, G8081) and HBSS at 1:1 was added to each well, which was incubated at 37° C. for 4 hours. Then, the number of cells was counted via fluorescence signals (560/590 nm), which were measured using Envision 2104 Multi-label Reader (Perkin Elmer).\nSince an increase degree in the efficacy of an anti-c-Met antibody to be caused by the expression suppression of each gene was measured as a reduction in cell viability, SI (sensitization index) was calculated. […]"}, "[2]": {"test_system": "HT29 colorectal cancer cell line", "experiment": "Cell viability, CellTiter Glo, combination with L3-1Y/IgG2 antibody", "settings": "L3-1Y/IgG2 antibody alone (negative control siRNA), 0-2 ug/ml, 72 h", "procedure": "The efficacy of the combination administration of FGFR3 siRNA and L3-1Y/IgG2 antibody was examined in a colorectal cancer cell line on which the anti-c-Met antibody has no effects. For this, HT29 (ATCC, HTB-38) cells were used. As a control group, All Negative control siRNA (Qiagen, cat. no. 1027281) was used, and as a target siRNA, a mixture of two kinds of siRNAs (see Table 7) that had effects during the screening was used. Transfection was carried out by the same procedures as Example 3.1 and after 24 hours, the cultured cells were treated with L3-1Y/IgG2 antibody at 0 ug/ml, 0.016 ug/ml, 0.08 ug/ml, 0.4 ug/ml, and 2 ug/ml, respectively.\n72 hours later after the treatment, 100 uL of CellTiter Glo solution (Promega, G7572) was added to each well, which was allowed to stay at a room temperature for 30 min. The number of cells was counted via luminescence signals, which were recorded using Envision 2104 Multi-label Reader (Perkin Elmer)."}, "[3]": {"test_system": "HCC1806 breast cancer cells", "experiment": "Cell viability, CellTiter Glo, combination with L3-1Y/IgG2 antibody", "procedure": "(§1) The efficacy of the combination administration of ITGB3 siRNA and L3-1Y/IgG2 antibody was examined in a breast cancer cell line on which the anti-c-Met antibody alone has no effects. For this, HCC1806 (ATCC, CRL-2335) and HCC1954 (ATCC, CRL-2338) cells were used.\n(§2) As a control group, All Negative control siRNA (Qiagen, cat. no. 1027281) was used, and as a target siRNA, a mixture of two kinds of siRNAs (see Table 7) that had effects during the screening was used. Transfection was carried out by the same procedures as Example 3.1 and after 24 hours, the cultured cells were treated with L3-1Y/IgG2 antibody at 0 ug/ml, 0.016 ug/ml, 0.08 ug/ml, 0.4 ug/ml, or 2 ug/ml. 72 hours later after the treatment, 100 uL of CellTiter Glo solution (Promega, G7572) was added to each well, which was allowed to stay at a room temperature for 30 min. The number of cells was counted via luminescence signals, which were recorded using Envision 2104 Multi-label Reader (Perkin Elmer).\nTo verify the effect of the combination therapy using ITGB3 inhibitor and anti-c-Met antibody in breast cancer cells on which the anti-c-Met antibody has no effects, HCC1806 (ATCC, CRL-2335) cells were used. The HCC 1806 cells are a cell line known to have high amounts of c-Met.\n5000 cells of HCC1806 cells were seeded onto a 96-well plate, and 24 hours after, the plate was treated with L3-1Y/IgG2 antibody and an ITGB3 inhibitor, cilengitide (Merck KGaA, EMD 121974). 72 hours later after the treatment, a change in the number of cells was measured using CellTiter Glo assay. Cilengitide was treated at a fixed concentration of 10 uM, and the L3-1Y/IgG2 antibody was treated by ⅕ dilution each time starting from 2 ug/ml. For comparison, the same test was conducted using L3-1Y/IgG2 antibody alone.\nThe efficacy of combination administration was examined in a breast cancer cell line on which the anti-c-Met antibody has no effects. For this, HCC1806 (ATCC, CRL-2335) cells were used.\n5000 HCC1806 cells were seeded onto a 96-well plate and 24 hours after, the plate was treated with L3-1Y/IgG2 antibody and an AKT inhibitor, MK-2206 (Merck & Co Inc) and 72 hours later after the antibody treatment, a change in the number of cells was measured using CellTiter Glo assay. MK-2206 was treated at a fixed concentration of 10 uM, and the L3-1Y/IgG2 antibody was treated by ⅕ dilution each time starting from 2 ug/ml. For comparison, the same test was conducted using L3-1Y/IgG2 antibody alone."}, "[4]": {"test_system": "HCC1954 breast cancer cells", "experiment": "Cell viability, CellTiter Glo, combination with L3-1Y/IgG2 antibody", "settings": "L3-1Y/IgG2 antibody alone (negative control siRNA)", "procedure": "as §1, §2"}},
  "data": [
    {"molecule": "B1", "values": [
      {"measurement": "final concentration that is approximately IC25~IC35", "setting": "[1]", "value": "~0.0625", "unit": "μl/ml"},
      {"measurement": "cancer cell growth inhibitory efficacy (cell viability)", "setting": "[2]", "value": "did not occur"},
      {"measurement": "growth inhibitory effect (cell viability)", "setting": "[3]; L3-1Y/IgG2 antibody alone (1/5 dilutions from 2 ug/ml), 72 h", "value": "did not occur"},
      {"measurement": "cancer cell growth inhibitory efficacy (cell viability)", "setting": "[3]; L3-1Y/IgG2 antibody alone (negative control siRNA)", "value": "did not occur"},
      {"measurement": "cancer cell growth inhibitory efficacy (cell viability)", "setting": "[4]", "value": "did not occur"}
    ]}
  ]
}
